Results taken from the Human Domainome abundance scans (Beltran et al. 2025).
± gives the uncertainty stated by the source.

B1: Mineralocorticoid receptor, residues 600 to 675; numbered along this chain, P08235 (parent)
chain: SKICLVCGDEASGCHYGVVTCGSCKVFFKRAVEGQHNYLCAGRNDCIIDKIRRKNCPACRLQKCLQAGMNLGARKS

Variants of: B1
Experiment: abundance fitness (aPCA) (normalised: wild type 0, dead -1); higher = more abundant; growth selection in yeast, the domain comes from the species named
Settings: Homo sapiens

SKICLVCGDEASGCHYFVVTCGSCKVFFKRAVEGQHNYLCAGRNDCIIDKIRRKNCPACRLQKCLQAGMNLGARKS [G17F] and SKICLVCGDEASGCHYLVVTCGSCKVFFKRAVEGQHNYLCAGRNDCIIDKIRRKNCPACRLQKCLQAGMNLGARKS [G17L] are within error of each other in abundance fitness: -0.121 ± 0.086 for the first, -0.142 ± 0.042 for the second.

SKICLVCGDEASGCHYSVVTCGSCKVFFKRAVEGQHNYLCAGRNDCIIDKIRRKNCPACRLQKCLQAGMNLGARKS [G17S] and SKICLVCGDEASGCHYNVVTCGSCKVFFKRAVEGQHNYLCAGRNDCIIDKIRRKNCPACRLQKCLQAGMNLGARKS [G17N] are within error of each other in abundance fitness: -0.044 ± 0.045 for the first, -0.126 ± 0.094 for the second.

SKICLVCGDEASGCHYHVVTCGSCKVFFKRAVEGQHNYLCAGRNDCIIDKIRRKNCPACRLQKCLQAGMNLGARKS [G17H] and SKICLVCGDEASGCHYIVVTCGSCKVFFKRAVEGQHNYLCAGRNDCIIDKIRRKNCPACRLQKCLQAGMNLGARKS [G17I] are within error of each other in abundance fitness: -0.208 ± 0.15 for the first, -0.24 ± 0.16 for the second.

SKICLVCGDEASGCHYQVVTCGSCKVFFKRAVEGQHNYLCAGRNDCIIDKIRRKNCPACRLQKCLQAGMNLGARKS [G17Q] and SKICLVCGDEASGCHYTVVTCGSCKVFFKRAVEGQHNYLCAGRNDCIIDKIRRKNCPACRLQKCLQAGMNLGARKS [G17T] are within error of each other in abundance fitness: -0.065 ± 0.06 for the first, -0.073 ± 0.064 for the second.

SKICLVCGDEASGCHYPVVTCGSCKVFFKRAVEGQHNYLCAGRNDCIIDKIRRKNCPACRLQKCLQAGMNLGARKS [G17P] and SKICLVCGDEASGCHYVVVTCGSCKVFFKRAVEGQHNYLCAGRNDCIIDKIRRKNCPACRLQKCLQAGMNLGARKS [G17V] are within error of each other in abundance fitness: -0.175 ± 0.083 for the first, -0.228 ± 0.05 for the second.

SKICLVCGDEASGCHYDVVTCGSCKVFFKRAVEGQHNYLCAGRNDCIIDKIRRKNCPACRLQKCLQAGMNLGARKS [G17D] and SKICLVCGDEASGCHYWVVTCGSCKVFFKRAVEGQHNYLCAGRNDCIIDKIRRKNCPACRLQKCLQAGMNLGARKS [G17W] are within error of each other in abundance fitness: -0.031 ± 0.086 for the first, -0.169 ± 0.062 for the second.

SKICLVCGDEASGCHYKVVTCGSCKVFFKRAVEGQHNYLCAGRNDCIIDKIRRKNCPACRLQKCLQAGMNLGARKS [G17K] and SKICLVCGDEASGCHYEVVTCGSCKVFFKRAVEGQHNYLCAGRNDCIIDKIRRKNCPACRLQKCLQAGMNLGARKS [G17E] are within error of each other in abundance fitness: -0.054 ± 0.066 for the first, -0.007 ± 0.055 for the second.

SKICLVCGDEASGCHYCVVTCGSCKVFFKRAVEGQHNYLCAGRNDCIIDKIRRKNCPACRLQKCLQAGMNLGARKS [G17C] and SKICLVCGDEASGCHYGVQTCGSCKVFFKRAVEGQHNYLCAGRNDCIIDKIRRKNCPACRLQKCLQAGMNLGARKS [V19Q] are within error of each other in abundance fitness: -0.049 ± 0.1 for the first, -0.02 ± 0.064 for the second.

SKICLVCGDEASGCHYGVMTCGSCKVFFKRAVEGQHNYLCAGRNDCIIDKIRRKNCPACRLQKCLQAGMNLGARKS [V19M] and SKICLVCGDEASGCHYGVFTCGSCKVFFKRAVEGQHNYLCAGRNDCIIDKIRRKNCPACRLQKCLQAGMNLGARKS [V19F] are within error of each other in abundance fitness: 0.115 ± 0.075 for the first, 0.047 ± 0.076 for the second.

First: SKICLVCGDEASGCHYGVNTCGSCKVFFKRAVEGQHNYLCAGRNDCIIDKIRRKNCPACRLQKCLQAGMNLGARKS [V19N]
Second: SKICLVCGDEASGCHYGVGTCGSCKVFFKRAVEGQHNYLCAGRNDCIIDKIRRKNCPACRLQKCLQAGMNLGARKS [V19G]
The abundance fitness of the first is higher: 0.112 ± 0.082 for the first, -0.082 ± 0.035 for the second.

SKICLVCGDEASGCHYGVHTCGSCKVFFKRAVEGQHNYLCAGRNDCIIDKIRRKNCPACRLQKCLQAGMNLGARKS [V19H] and SKICLVCGDEASGCHYGVETCGSCKVFFKRAVEGQHNYLCAGRNDCIIDKIRRKNCPACRLQKCLQAGMNLGARKS [V19E] are within error of each other in abundance fitness: -0.091 ± 0.087 for the first, 0.032 ± 0.056 for the second.

SKICLVCGDEASGCHYGVDTCGSCKVFFKRAVEGQHNYLCAGRNDCIIDKIRRKNCPACRLQKCLQAGMNLGARKS [V19D] and SKICLVCGDEASGCHYGVKTCGSCKVFFKRAVEGQHNYLCAGRNDCIIDKIRRKNCPACRLQKCLQAGMNLGARKS [V19K] are within error of each other in abundance fitness: -0.008 ± 0.11 for the first, 0.007 ± 0.051 for the second.

SKICLVCGDEASGCHYGVITCGSCKVFFKRAVEGQHNYLCAGRNDCIIDKIRRKNCPACRLQKCLQAGMNLGARKS [V19I] and SKICLVCGDEASGCHYGVPTCGSCKVFFKRAVEGQHNYLCAGRNDCIIDKIRRKNCPACRLQKCLQAGMNLGARKS [V19P] are within error of each other in abundance fitness: -0.086 ± 0.079 for the first, 0.001 ± 0.058 for the second.

First: SKICLVCGDEASGCHYGVATCGSCKVFFKRAVEGQHNYLCAGRNDCIIDKIRRKNCPACRLQKCLQAGMNLGARKS [V19A]
Second: SKICLVCGDEASGCHYGVCTCGSCKVFFKRAVEGQHNYLCAGRNDCIIDKIRRKNCPACRLQKCLQAGMNLGARKS [V19C]
The abundance fitness of the first is higher: 0.029 ± 0.048 for the first, -0.108 ± 0.067 for the second.

SKICLVCGDEASGCPYGVVTCGSCKVFFKRAVEGQHNYLCAGRNDCIIDKIRRKNCPACRLQKCLQAGMNLGARKS [H15P] and SKICLVCGDEASGCRYGVVTCGSCKVFFKRAVEGQHNYLCAGRNDCIIDKIRRKNCPACRLQKCLQAGMNLGARKS [H15R] are within error of each other in abundance fitness: -0.066 ± 0.065 for the first, -0.136 ± 0.039 for the second.

SKICLVCGDEASGCVYGVVTCGSCKVFFKRAVEGQHNYLCAGRNDCIIDKIRRKNCPACRLQKCLQAGMNLGARKS [H15V] and SKICLVCGDEASGCSYGVVTCGSCKVFFKRAVEGQHNYLCAGRNDCIIDKIRRKNCPACRLQKCLQAGMNLGARKS [H15S] are within error of each other in abundance fitness: -0.103 ± 0.045 for the first, -0.075 ± 0.053 for the second.

SKICLVCGDEASGCQYGVVTCGSCKVFFKRAVEGQHNYLCAGRNDCIIDKIRRKNCPACRLQKCLQAGMNLGARKS [H15Q] and SKICLVCGDEASGCTYGVVTCGSCKVFFKRAVEGQHNYLCAGRNDCIIDKIRRKNCPACRLQKCLQAGMNLGARKS [H15T] are within error of each other in abundance fitness: -0.12 ± 0.056 for the first, -0.11 ± 0.052 for the second.

SKICLVCGDEASGCYYGVVTCGSCKVFFKRAVEGQHNYLCAGRNDCIIDKIRRKNCPACRLQKCLQAGMNLGARKS [H15Y] and SKICLVCGDEASGCWYGVVTCGSCKVFFKRAVEGQHNYLCAGRNDCIIDKIRRKNCPACRLQKCLQAGMNLGARKS [H15W] are within error of each other in abundance fitness: -0.057 ± 0.085 for the first, 0.029 ± 0.056 for the second.
